{
  "source": "patent US12428658B2",
  "about": "“Methods and compositions for enzymatic polymerization of N3′→P5′ phosphoramidate DNA” (The General Hospital Corporation, priority 2019, dated 2025)",
  "molecules": {"B1": {"name": "F710Y: B. stearothermophilus DNA polymerase I large fragment (BF) with single active site mutation F710Y in the O helix (protein, listed as Bacillus stearothermophilus)", "chain": "MKNKLVLIDGNSVAYRAFFALPLLHNDKGIHTNAVYGFTMMLNKILAEEQPTHILVAFDAGKTTFRHETFQDYKGGRQQTPPELSEQFPLLRELLKAYRIPAYELDHYEADDIIGTMAARAEREGFAVKVISGDRDLTQLASPQVTVEITKKGITDIESYTPETVVEKYGLTPEQIVDLKGLMGDKSDNIPGVPGIGEKTAVKLLKQFGTVENVLASIDEIKGEKLKENLRQYRDLALLSKQLAAICRDAPVELTLDDIVYKGEDREKVVALFQELGFQSFLDKMAVQTDEGEKPLAGMDFAIADSVTDEMLADKAALVVEVVGDNYHHAPIVGIALANERGRFFLRPETALADPKFLAWLGDETKKKTMFDSKRAAVALKWKGIELRGVVFDLLLAAYLLDPAQAAGDVAAVAKMHQYEAVRSDEAVYGKGAKRTVPDEPTLAEHLVRKAAAIWALEEPLMDELRRNEQDRLLTELEQPLAGILANMEFTGVKVDTKRLEQMGAELTEQLQAVERRIYELAGQEFNINSPKQLGTVLFDKLQLPVLKKTKTGYSTSADVLEKLAPHHEIVEHILHYRQLGKLQSTYIEGLLKVVHPVTGKVHTMFNQALTQTGRLSSVEPNLQNIPIRLEEGRKIRQAFVPSEPDWLIFAADYSQIELRVLAHIAEDDNLIEAFRRGLDIHTKTAMDIFHVSEEDVTANMRRQAKAVNYGIVYGISDYGLAQNLNITRKEAAEFIERYFASFPGVKQYMDNIVQEAKQKGYVTTLLHRRRYLPDITSRNFNVRSFAERTAMNTPIQGSAADIIKKAMIDLSVRLREERLQARLLLQVHDELILEAPKEEIERLCRLVPEVMEQAVTLRVPLKVDYHYGPTWYDAK"}},
  "key": {"[1]": {"system": "3′-amino terminal DNA primer / DNA template duplex", "assay": "3′-amino primer extension assay (single nucleotide addition, pre-steady-state NP activity)", "assay_type": "biochemical", "experimental": "(§1) Primer extension assays. Except where indicated, all extension reactions were performed with 1 μM fluorescein-labeled primer, 1.5 μM template, and ˜1.1 μM purified His6-tagged protein at 55° C. in a reaction buffer composed of 40 mM Tris-HCl, pH 8.8, 1 mM DTT, and a divalent cation as specified, typically 10 mM CaCl2. Reaction mixtures were equilibrated at the indicated reaction temperature for 1 min and initiated by addition of substrate. Progress was monitored by sampling 1 μL from the reaction manually quenched into 24 μL of chilled 90% formamide, 10 mM EDTA. Quenched samples were denatured at 90° C. for 1 min and cooled to room temperature prior to separation by denaturing polyacrylamide gel electrophoresis on 20% TBE-urea gels. To maintain strand separation for long extension products, as in FIGS. 3F-31I, an unlabeled DNA oligonucleotide complementary to the template was added to the quenching buffer (˜2 μM) prior to denaturation. Typically, 3 or 4 μL of quenched sample was loaded per lane for gels of 0.75-mm thickness. Bands were visualized with a Typhoon laser scanning imager (GE Amersham) and quantified with the manufacturer's software. For acid digestion of extended products, a reaction sample was diluted with 2.5 volumes of 1% acetic acid, 10 mM EDTA in formamide and digested at 75° C. for 45 min prior to gel separation."}, "[2]": {"system": "3′-amino terminal DNA primer / mixed sequence template duplex", "assay": "Multiple-turnover NP-DNA synthesis by 3′-amino primer extension with all four nNTPs on a mixed sequence template", "assay_type": "biochemical", "conditions": "55° C., Ca2+", "experimental": "as §1"}},
  "note": "Where two headings read alike, the source gives them in different places.",
  "data": [
    {"molecule": "B1", "values": [
      {"measurement": "Selectivity dCTP/nCTP, ratio (kpol/Kd, app)dCTP/(kpol/Kd, app)nCTP", "setting": "[1]; 10 mM CaCl2, pre-steady-state", "value": 9},
      {"measurement": "Kd", "setting": "[1]; 3′-amino primer extension, 10 mM CaCl2, pre-steady-state, read-out: Kd, app dCTP", "value": 1100, "unit": "nM"},
      {"measurement": "Kd", "setting": "[1]; 3′-amino primer extension, 10 mM CaCl2, pre-steady-state, read-out: Kd, app nCTP", "value": 3600, "unit": "nM"},
      {"measurement": "kpol dCTP", "setting": "[1]; 3′-amino primer extension, varying dCTP, 10 mM CaCl2, pre-steady-state, 55° C., pH 8.8", "value": 0.191, "unit": "min⁻¹"},
      {"measurement": "kpol nCTP", "setting": "[1]; 3′-amino primer extension, varying nCTP, 10 mM CaCl2, pre-steady-state, 55° C., pH 8.8", "value": 0.069, "unit": "min⁻¹"},
      {"measurement": "increase in kpol for dCTP vs. wild-type", "setting": "[1]; Ca2+ cofactor", "value": 2.6, "unit": "fold"},
      {"measurement": "increase in kpol for nCTP (NP activity) vs. wild-type", "setting": "[1]; Ca2+ cofactor", "value": 21, "unit": "fold"},
      {"measurement": "transient kpol/Kd for NP-DNA synthesis with Ca2+", "setting": "[1]; nCTP, Ca2+, from Table 4", "value": 320, "unit": "M⁻¹ s⁻¹"},
      {"measurement": "maximum reaction velocity / NP activity, Ca2+ vs. Mg2+", "setting": "[1]; saturating Ca2+ vs. Mg2+, faster with Ca2+", "value": 5, "unit": "fold"},
      {"measurement": "apparent binding affinity for nCTP vs. dCTP, effect of the mutation", "setting": "[1]; with Ca2+", "value": "unaffected"},
      {"measurement": "kinetic disadvantage of NP-DNA polymerase activity relative to native phosphodiester bond forming activity", "setting": "[1]; with F710Y", "value": "approximately four orders-of-magnitude"},
      {"measurement": "time to full length +28 nt NP-DNA product", "setting": "[2]", "value": "< 24", "unit": "h"}
    ]}
  ]
}
